{"source": "patent US20210332112A1", "about": "(University of Texas, published 2021)", "binders": {"B1": {"name": "hu1B7 antibody (antibody, V domains shown)", "VH": "EVQLVESGGGLVQPGGSLRLSCAASGYKFTSYWMHWVRQAPGKGLEWVGNIFPGSGSTNYDEKFNSRFTISVDTSKNTAYLQMNSLRAEDTAVYYCTRWLSGAYFDYWGQGTLVTVSS", "VL": "DIQMTQSPSSLSASVGDRVTITCSASSSVSFMYWYQQKPGKAPKLLIYLTSNLPSGVPSRFSGFGSGTDYTLTISSLQPEDFATYYCQQWSSHPPTFGQGTKVEIK"}}, "target": "pertussis toxin (Bordetella pertussis, UniProt P04977 35-269; P04978 28-226; P04979 29-227; P0A3R5 43-152; P04981 35-133)", "assay": "ELISA, plate coated with pertussis toxin, antibody titrated, detection with goat anti-human kappa constant domain-HRP [panel C]", "data": [{"binder": "B1", "values": [{"measurement": "EC50 (read off the curve)", "result": "~0.05", "unit": "µg/mL"}]}]}
